Reference: patent CN110885376A (SHANGHAI NOVAMAB BIOPHARMACEUTICALS CO LTD, dated 2020)

Biological target: T1, CD20 (UniProt P11836 1-297, limits assumed)
T1 construct: whole, on cells; Endogenous CD20 of Raji cells; also called 白细胞分化抗原20; 细胞表面CD20
T1 sequence (looked up): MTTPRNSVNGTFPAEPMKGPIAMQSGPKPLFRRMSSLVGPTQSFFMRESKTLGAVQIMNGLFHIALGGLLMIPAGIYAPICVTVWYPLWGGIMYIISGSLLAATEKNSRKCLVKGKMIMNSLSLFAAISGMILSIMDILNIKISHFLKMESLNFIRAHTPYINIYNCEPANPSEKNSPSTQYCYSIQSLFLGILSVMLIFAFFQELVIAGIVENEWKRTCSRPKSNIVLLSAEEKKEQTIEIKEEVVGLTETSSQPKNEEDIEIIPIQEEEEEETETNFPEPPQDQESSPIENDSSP
Experiment: flow cytometry on Raji cells (CD47 first blocked with Nb1902), anti-hFc-FITC

B1: 利妥昔单抗 (antibody, human IgG1, kappa, L234A L235A, V domains shown)
VH: QVQLQQPGAELVKPGASVKMSCKASGYTFTSYNMHWVKQTPGRGLEWIGAIYPGNGDTSYNQKFKGKATLTADKSSSTAYMQLSSLTSEDSAVYYCARSTYYGGDWYFNVWGAGTTVTVSA
VL: QIVLSQSPAILSASPGEKVTMTCRASSSVSYIHWFQQKPGSSPKPWIYATSNLASGVPVRFSGSGSGTSYSLTISRVEAEDAATYYCQQWTSNPPTFGGGTKLEIKR
notes: also called 对照抗体利妥昔; rituximab
  EC50: 5.67 µg/mL
